# Data as given in US20240294623A1 (SCHOLAR ROCK, published 2024).
# B1: Ab6 (antibody, V domains shown)
# VH: EVQLVESGGGLVQPGGSLRLSCTASGFTFSSFSMDWVRQAPGKGLEWVSYISPSADTIYYADSVKGRFTISRDNAKNTLYLQMNSLRAEDTAVYYCARGVLDYGDMLMPWGQGTLVTVSS
# VL: DIQMTQSPSSLSASVGDRVTITCQASQDITNYLNWYQQKPGKAPKLLIYDASNLETGVPSRFSGSGSGTDFTFTISSLQPEDIATYYCQQADNHPPWTFGGGTKVEIKR
# notes: Fully human IgG4/kappa
# How the values were obtained:
# hLRRC33-proTGFβ1 [1] = target: T1, hLRRC33-proTGFβ1 (human, UniProt Q86YC3 19-650; P01137 30-390, limits assumed); assay: MSD-SET, hIgG4
# T1 construct: LLC as m1; Same id used for the cell-surface complex in reporter assays; also called human LRRC33-proTGFβ1 complex; LRRC33-ProTGFb1
# T1 sequence (Q86YC3 19-650 limits assumed, chain 1 of 2): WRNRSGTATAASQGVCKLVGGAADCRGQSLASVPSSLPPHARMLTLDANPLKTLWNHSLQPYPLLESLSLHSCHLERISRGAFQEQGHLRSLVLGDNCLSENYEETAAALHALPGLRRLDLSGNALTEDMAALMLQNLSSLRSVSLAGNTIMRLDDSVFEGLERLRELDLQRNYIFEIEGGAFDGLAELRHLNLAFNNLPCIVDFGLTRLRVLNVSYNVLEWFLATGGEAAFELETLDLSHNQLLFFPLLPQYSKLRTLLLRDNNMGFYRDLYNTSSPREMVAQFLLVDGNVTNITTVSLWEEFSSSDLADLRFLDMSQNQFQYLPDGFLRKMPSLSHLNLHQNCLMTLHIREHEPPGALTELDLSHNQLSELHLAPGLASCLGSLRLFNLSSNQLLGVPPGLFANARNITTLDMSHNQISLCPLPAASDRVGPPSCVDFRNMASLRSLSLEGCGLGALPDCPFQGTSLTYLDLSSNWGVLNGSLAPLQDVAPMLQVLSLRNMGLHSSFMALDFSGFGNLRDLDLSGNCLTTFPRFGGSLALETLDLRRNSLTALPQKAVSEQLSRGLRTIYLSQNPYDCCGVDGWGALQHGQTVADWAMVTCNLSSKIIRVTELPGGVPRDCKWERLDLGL
# T1 sequence (P01137 30-390 limits assumed, chain 2 of 2): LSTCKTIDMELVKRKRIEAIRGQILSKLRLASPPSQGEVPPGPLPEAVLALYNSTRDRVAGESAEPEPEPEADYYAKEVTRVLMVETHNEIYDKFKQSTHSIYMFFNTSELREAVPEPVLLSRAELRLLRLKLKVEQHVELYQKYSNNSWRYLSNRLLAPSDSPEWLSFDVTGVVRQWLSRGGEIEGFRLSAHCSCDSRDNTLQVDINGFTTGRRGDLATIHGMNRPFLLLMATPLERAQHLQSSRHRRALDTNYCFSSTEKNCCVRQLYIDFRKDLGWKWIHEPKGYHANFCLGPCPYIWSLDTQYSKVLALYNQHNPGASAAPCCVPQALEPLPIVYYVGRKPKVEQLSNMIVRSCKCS
# Description: (§1) For solution equilibrium titration-based binding assays, protein complexes that comprise one of the presenting molecules such as those shown above may be employed as antigen (presenting molecule-TGFβ1 complex, or an LLC). Test antibodies are allowed to form antigen-antibody complex in solution. Antigen-antibody reaction mixtures are incubated to allow an equilibrium to be reached; the amount of the antigen-antibody complex present in the assay reactions can be measured by suitable means well known in the art. As compared to BLI-based assays, SET-based assays are less affected by on/off rates of the antigen-antibody complex, allowing sensitive detection of very high affinity interactions.
# hGARP-proTGFβ1 [2] = target: T2, hGARP-proTGFβ1 (human, UniProt Q14392 18-627; P01137 30-390, limits assumed); assay: MSD-SET, hIgG4
# T2 construct: LLC as m1; Same id used for the cell-surface complex in reporter assays; also called human GARP-proTGFβ1 complex; GARP-ProTGFb1
# T2 sequence (Q14392 18-627 limits assumed, chain 1 of 2): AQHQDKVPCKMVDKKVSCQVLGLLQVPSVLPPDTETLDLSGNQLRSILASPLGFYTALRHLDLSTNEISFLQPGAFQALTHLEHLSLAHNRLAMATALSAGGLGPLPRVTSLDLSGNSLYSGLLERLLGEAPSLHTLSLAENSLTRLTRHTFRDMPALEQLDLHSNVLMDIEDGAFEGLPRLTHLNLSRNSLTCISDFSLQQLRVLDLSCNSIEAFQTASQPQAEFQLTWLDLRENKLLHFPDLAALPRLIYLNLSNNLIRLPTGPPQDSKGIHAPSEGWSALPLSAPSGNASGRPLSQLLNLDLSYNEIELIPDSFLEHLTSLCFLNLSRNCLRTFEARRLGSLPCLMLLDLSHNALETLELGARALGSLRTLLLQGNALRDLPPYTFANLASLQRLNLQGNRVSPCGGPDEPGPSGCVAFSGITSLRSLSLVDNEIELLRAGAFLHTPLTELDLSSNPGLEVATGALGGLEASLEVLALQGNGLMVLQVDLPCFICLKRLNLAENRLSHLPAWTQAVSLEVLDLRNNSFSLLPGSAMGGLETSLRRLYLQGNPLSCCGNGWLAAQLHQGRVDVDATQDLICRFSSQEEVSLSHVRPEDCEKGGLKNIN
# T2 sequence (P01137 30-390 limits assumed, chain 2 of 2): as the sequence (P01137 30-390 limits assumed, chain 2 of 2) above
# Description: as §1
# hLTBP3-proTGFβ1 [3] = target: T3, hLTBP3-proTGFβ1 (human, UniProt Q9NS15 44-1303; P01137 30-390, limits assumed); assay: MSD-SET, hIgG4
# T3 construct: LLC as m1; Same id used for the cell-made complex in reporter assays; also called human LTBP3-proTGFβ1 complex; LTBP3-ProTGFb1
# T3 sequence (Q9NS15 44-1303 limits assumed, chain 1 of 2): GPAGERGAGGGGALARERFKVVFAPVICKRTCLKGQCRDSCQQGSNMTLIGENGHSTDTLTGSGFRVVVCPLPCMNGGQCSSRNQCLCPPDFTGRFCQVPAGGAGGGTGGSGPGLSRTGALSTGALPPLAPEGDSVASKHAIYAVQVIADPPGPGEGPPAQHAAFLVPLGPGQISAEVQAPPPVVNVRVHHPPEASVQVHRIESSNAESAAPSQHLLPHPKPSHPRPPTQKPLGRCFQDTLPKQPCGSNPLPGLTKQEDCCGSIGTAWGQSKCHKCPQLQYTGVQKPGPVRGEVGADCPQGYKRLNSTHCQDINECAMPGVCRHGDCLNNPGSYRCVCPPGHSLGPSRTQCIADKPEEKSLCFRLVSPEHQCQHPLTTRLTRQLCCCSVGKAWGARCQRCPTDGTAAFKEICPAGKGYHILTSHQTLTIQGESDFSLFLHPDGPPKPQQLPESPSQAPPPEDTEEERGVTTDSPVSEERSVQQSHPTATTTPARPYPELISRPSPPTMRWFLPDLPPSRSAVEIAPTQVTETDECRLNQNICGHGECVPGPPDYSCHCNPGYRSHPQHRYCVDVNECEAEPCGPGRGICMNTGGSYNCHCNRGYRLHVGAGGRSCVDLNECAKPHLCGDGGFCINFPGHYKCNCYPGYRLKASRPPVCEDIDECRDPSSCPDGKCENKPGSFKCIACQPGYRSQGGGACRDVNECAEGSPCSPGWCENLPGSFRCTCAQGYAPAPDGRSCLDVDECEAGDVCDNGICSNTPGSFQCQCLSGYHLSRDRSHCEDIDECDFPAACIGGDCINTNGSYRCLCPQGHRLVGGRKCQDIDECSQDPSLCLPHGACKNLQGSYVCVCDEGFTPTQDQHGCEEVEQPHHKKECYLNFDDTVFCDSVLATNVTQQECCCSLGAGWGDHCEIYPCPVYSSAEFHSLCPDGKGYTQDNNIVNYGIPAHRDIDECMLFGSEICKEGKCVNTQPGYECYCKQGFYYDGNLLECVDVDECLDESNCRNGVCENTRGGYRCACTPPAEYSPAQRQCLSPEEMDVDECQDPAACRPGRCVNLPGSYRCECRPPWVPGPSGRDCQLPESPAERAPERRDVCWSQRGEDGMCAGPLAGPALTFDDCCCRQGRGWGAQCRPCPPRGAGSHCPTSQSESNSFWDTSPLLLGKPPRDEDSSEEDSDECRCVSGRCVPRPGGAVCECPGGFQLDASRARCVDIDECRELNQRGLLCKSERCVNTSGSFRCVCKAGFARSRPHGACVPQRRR
# T3 sequence (P01137 30-390 limits assumed, chain 2 of 2): as the sequence (P01137 30-390 limits assumed, chain 2 of 2) above
# Description: as §1
# hLTBP1-proTGFβ1 [4] = target: T4, hLTBP1-proTGFβ1 (human, UniProt Q14766 347-1721; P01137 30-390, limits assumed); assay: MSD-SET, hIgG4
# T4 construct: Large latent complex (LLC): proTGFβ1 dimer disulfide-linked to one presenting molecule; recombinant, purified, biotinylated in BLI/SPR; The same id is used for the complex made by transfected cells in the reporter assays; also called human LTBP1-proTGFβ1 complex; LTBP1-ProTGFb1
# T4 sequence (Q14766 347-1721 limits assumed, chain 1 of 2): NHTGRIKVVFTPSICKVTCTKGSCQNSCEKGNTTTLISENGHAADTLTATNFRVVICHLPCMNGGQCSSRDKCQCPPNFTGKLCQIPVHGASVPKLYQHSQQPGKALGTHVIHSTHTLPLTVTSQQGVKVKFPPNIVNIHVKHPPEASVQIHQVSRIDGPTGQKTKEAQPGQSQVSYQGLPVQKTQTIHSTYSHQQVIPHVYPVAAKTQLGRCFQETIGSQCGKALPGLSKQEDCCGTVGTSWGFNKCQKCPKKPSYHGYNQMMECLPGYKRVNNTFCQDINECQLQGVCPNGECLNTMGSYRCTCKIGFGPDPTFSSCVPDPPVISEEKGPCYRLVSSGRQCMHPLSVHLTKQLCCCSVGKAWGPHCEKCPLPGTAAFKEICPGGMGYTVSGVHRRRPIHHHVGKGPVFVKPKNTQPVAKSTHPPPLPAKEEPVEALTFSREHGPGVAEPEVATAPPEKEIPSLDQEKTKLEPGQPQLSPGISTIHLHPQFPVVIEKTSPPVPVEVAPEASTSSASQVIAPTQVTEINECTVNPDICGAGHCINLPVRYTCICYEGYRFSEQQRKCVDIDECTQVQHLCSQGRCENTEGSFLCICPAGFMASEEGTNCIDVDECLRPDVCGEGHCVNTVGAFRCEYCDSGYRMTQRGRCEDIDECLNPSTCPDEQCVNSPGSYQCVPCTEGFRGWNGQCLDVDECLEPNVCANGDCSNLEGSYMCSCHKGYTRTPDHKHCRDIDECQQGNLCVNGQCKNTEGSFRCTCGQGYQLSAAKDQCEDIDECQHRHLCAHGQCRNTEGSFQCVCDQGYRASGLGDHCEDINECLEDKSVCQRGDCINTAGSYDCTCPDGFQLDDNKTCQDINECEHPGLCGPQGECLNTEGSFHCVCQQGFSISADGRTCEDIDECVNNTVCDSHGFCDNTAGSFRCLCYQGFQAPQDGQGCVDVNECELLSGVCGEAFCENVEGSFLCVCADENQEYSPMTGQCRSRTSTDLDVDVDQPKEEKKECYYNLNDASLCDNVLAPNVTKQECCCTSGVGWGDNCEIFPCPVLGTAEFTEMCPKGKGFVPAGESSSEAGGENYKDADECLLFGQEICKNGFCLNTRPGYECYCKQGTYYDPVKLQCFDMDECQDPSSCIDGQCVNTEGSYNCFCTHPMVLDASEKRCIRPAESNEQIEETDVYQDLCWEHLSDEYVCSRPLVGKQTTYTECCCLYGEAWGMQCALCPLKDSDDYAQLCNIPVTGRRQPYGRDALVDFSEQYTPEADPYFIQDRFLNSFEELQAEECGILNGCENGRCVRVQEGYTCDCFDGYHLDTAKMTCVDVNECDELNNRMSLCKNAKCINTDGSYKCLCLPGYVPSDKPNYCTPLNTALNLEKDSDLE
# T4 sequence (P01137 30-390 limits assumed, chain 2 of 2): as the sequence (P01137 30-390 limits assumed, chain 2 of 2) above
# Description: as §1
# hLRRC33-proTGFβ1 [5] = target: T1, hLRRC33-proTGFβ1; assay: MSD-SET
# mLRRC33-proTGFβ1 = mLRRC33-proTGFβ1 (murine, UniProt Q8BMT4 20-651); assay: MSD-SET
# mLRRC33-proTGFβ1, sequence (Q8BMT4 20-651): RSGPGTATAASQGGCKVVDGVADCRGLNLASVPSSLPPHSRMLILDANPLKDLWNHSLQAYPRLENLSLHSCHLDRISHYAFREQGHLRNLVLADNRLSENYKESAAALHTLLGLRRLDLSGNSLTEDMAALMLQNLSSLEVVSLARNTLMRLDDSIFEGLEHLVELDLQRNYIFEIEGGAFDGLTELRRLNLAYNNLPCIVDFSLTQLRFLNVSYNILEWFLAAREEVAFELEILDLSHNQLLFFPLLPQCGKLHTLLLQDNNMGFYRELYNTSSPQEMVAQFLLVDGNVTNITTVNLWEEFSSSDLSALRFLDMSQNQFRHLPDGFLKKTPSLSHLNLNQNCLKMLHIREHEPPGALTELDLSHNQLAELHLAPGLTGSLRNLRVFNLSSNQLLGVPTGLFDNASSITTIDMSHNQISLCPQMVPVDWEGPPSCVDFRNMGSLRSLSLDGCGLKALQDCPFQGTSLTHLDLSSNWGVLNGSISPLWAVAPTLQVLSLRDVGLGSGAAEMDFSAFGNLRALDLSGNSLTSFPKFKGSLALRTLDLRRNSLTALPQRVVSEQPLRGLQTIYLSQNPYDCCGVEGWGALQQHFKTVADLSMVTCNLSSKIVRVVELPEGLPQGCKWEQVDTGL
# mGARP-proTGFβ1 = target: T5, mGARP-proTGFβ1 (mouse); assay: MSD-SET
# T5 construct: Murine LLC; also called murine GARP-proTGFβ1 complex
# hGARP-proTGFβ1 [6] = target: T2, hGARP-proTGFβ1; assay: MSD-SET
# mLTBP1-proTGFβ1 = target: T6, mLTBP1-proTGFβ1 (mouse); assay: MSD-SET
# T6 construct: Murine LLC; also called murine LTBP1-proTGFβ1 complex
# hLTBP3-proTGFβ1 [7] = target: T3, hLTBP3-proTGFβ1; assay: MSD-SET
# mLTBP3-proTGFβ1 = target: T7, mLTBP3-proTGFβ1 (mouse); assay: MSD-SET
# T7 construct: Murine LLC; also called murine LTBP3-proTGFβ1 complex
# hLTBP1-proTGFβ1 [8] = target: T4, hLTBP1-proTGFβ1; assay: MSD-SET
# hLRRC33-proTGFβ1 [9] = target: T1, hLRRC33-proTGFβ1; assay: BLI (Octet)
# hGARP-proTGFβ1 [10] = target: T2, hGARP-proTGFβ1; assay: BLI (Octet)
# hLTBP3-proTGFβ1 [11] = target: T3, hLTBP3-proTGFβ1; assay: BLI (Octet)
# hLTBP1-proTGFβ1 [12] = target: T4, hLTBP1-proTGFβ1; assay: BLI (Octet)
binder,measurement,setting,value
B1,Kd,hLRRC33-proTGFβ1 [1],0.063 nM
same,Kd,hGARP-proTGFβ1 [2],0.027 nM
same,Kd,hLTBP3-proTGFβ1 [3],0.029 nM
same,Kd,hLTBP1-proTGFβ1 [4],0.018 nM
same,Kd,hLRRC33-proTGFβ1 [5],0.063 nM
same,Kd,mLRRC33-proTGFβ1,0.048 nM
same,Kd,mGARP-proTGFβ1,0.021 nM
same,Kd,hGARP-proTGFβ1 [6],0.027 nM
same,Kd,mLTBP1-proTGFβ1,0.024 nM
same,Kd,hLTBP3-proTGFβ1 [7],0.029 nM
same,Kd,mLTBP3-proTGFβ1,0.028 nM
same,Kd,hLTBP1-proTGFβ1 [8],0.018 nM
same,Kd,hLRRC33-proTGFβ1 [9],0.336 nM
same,Kd,hGARP-proTGFβ1 [10],0.404 nM
same,Kd,hLTBP3-proTGFβ1 [11],0.123 nM
same,Kd,hLTBP1-proTGFβ1 [12],0.207 nM
